Results taken from patent US20260055172A1 (CATALYM, published 2026).

T1: recombinant human GDF-15 (human, UniProt Q99988 195-308)
T1 sequence (looked up): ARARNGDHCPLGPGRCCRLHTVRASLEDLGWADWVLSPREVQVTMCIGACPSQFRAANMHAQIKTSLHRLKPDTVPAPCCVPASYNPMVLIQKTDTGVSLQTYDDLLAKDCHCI

T2: cynomolgus GDF-15 (cynomolgus monkey, UniProt G7PWZ3 193-308, limits assumed)
T2 construct: also called NHP GDF-15
T2 sequence (looked up): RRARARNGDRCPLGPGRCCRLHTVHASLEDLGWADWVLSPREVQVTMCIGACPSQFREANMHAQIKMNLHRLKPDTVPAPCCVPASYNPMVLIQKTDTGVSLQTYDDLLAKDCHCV

T3: rat GDF-15 (rat, UniProt Q9Z0J6 189-303)
T3 sequence (looked up): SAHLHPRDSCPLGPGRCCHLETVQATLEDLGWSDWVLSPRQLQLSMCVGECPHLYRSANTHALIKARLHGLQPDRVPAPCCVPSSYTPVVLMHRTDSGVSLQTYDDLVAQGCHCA

T4: mouse GDF-15 (mouse, UniProt Q9Z0J7 189-303)
T4 construct: also called murine GDF-15
T4 sequence (looked up): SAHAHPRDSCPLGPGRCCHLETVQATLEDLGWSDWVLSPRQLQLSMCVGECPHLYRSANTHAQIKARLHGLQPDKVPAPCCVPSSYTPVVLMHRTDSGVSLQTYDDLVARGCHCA

B1: CTL-002 (antibody, human IgG4 S228P, kappa)
heavy: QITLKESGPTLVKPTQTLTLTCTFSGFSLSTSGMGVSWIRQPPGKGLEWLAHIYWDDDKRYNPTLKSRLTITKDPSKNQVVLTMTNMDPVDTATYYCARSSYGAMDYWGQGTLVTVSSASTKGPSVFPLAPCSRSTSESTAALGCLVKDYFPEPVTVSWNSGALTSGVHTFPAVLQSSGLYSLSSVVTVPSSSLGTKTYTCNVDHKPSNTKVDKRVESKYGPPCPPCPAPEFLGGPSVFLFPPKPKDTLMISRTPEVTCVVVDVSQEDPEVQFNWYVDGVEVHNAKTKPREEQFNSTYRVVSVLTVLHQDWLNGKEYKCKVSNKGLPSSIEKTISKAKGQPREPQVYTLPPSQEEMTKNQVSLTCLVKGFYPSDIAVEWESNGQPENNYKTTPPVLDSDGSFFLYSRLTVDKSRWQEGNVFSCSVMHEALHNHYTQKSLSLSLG
light: DIVLTQSPSFLSASVGDRVTITCKASQNVGTNVAWFQQKPGKSPKALIYSASYRYSGVPDRFTGSGSGTEFTLTISSLQPEDFAAYFCQQYNNFPYTFGGGTKLEIKRTVAAPSVFIFPPSDEQLKSGTASVVCLLNNFYPREAKVQWKVDNALQSGNSQESVTEQDSKDSTYSLSSTLTLSKADYEKHKVYACEVTHQGLSSPVTKSFNRGEC
notes: Humanized, hinge-stabilized IgG4 (IgG4 S228P) derived from mouse antibody B1-23; also called CTL-001 IgG4*; CTL-001 IgG4
B2: CTL-001 (antibody, human IgG1, kappa)
heavy: not shown
light: DIVLTQSPSFLSASVGDRVTITCKASQNVGTNVAWFQQKPGKSPKALIYSASYRYSGVPDRFTGSGSGTEFTLTISSLQPEDFAAYFCQQYNNFPYTFGGGTKLEIKRTVAAPSVFIFPPSDEQLKSGTASVVCLLNNFYPREAKVQWKVDNALQSGNSQESVTEQDSKDSTYSLSSTLTLSKADYEKHKVYACEVTHQGLSSPVTKSFNRGEC
notes: Humanized IgG1 with a kappa light chain; also called H1L5; B1-23-H1L5

Columns and labels:
[1] = target: T1, recombinant human GDF-15; assay: cell-based or functional assay
[2] = target: T1, recombinant human GDF-15; assay: SPR (Biacore T3000): CTL-002 on the flow cell (per paragraph 142 an anti-human IgG Fc antibody is immobilized on the CM5 chip), human GDF-15 injected at 247, 370, 556, 833 and 1250 pM, global fit; one representative measurement of three
Procedure: (§1) All experiments were performed in 10 mM HEPES buffer, pH 7.4, 150 mM NaCl, 3.4 mM EDTA and 0.05% Tween. anti-human IgG Fc specific antibody (Jackson, Order #109-005-008, Lot #111148) was covalently immobilized by EDC/NHS chemistry on Biacore CM5 Chips (GE Healthcare, Order #61144275, Lot #10236645). For kinetic characterization of the antigen-antibody interaction pulses of increasing GDF-15 concentrations (e.g. 156.3 pM, 312 pM, 625 pM, 1,250 pM) were injected at a flow rate of 30 μl/min. After each measurement cycle (8 min of association followed by 30 min of dissociation) the antibody-antigen complex was resolved by regeneration of the surface with 10 mM glycine-HCl at pH 2.0. […] For global fit analysis only, these antigen concentrations were taken into account, which allowed the analysis following the Langmuir 1:1 binding model or 1:1 binding with drifting baseline.

[3] = target: T2, cynomolgus GDF-15; assay: KD from PK-PD model fitted to in vivo NHP data (not a direct binding assay); in vivo KD fitted by the NHP PK-PD model, not an in vitro binding assay
[4] = target: T1, recombinant human GDF-15; assay: SPR, Biacore T3000; CTL-002 on immobilized anti-human IgG Fc antibody, GDF-15 injected
Procedure: (§2) In addition, the affinity to cynomolgus rat and mouse GDF-15 was measured (see Table 2).
as §1

[5] = target: T2, cynomolgus GDF-15; assay: as above
Procedure: as §2, §1

[6] = target: T3, rat GDF-15; assay: as above
Procedure: as §2, §1

[7] = target: T4, mouse GDF-15; assay: as above
Procedure: as §2, §1

[8] = target: human complement protein C1q (human, UniProt P02745 23-245; P02746 28-253; P02747 29-245); assay: ELISA, antibody incubated on coated human GDF-15, then 10 µg/ml human C1q, detection with HRP-conjugated anti-C1q antibody
Procedure: Interaction of C1q protein and therapeutic antibody was determined in an ELISA-based approach with 10 μg/ml human C1q protein using a HRP-conjugated anti-C1q antibody for detection. Here, CTL-001 and the different isotype variants were incubated to prior coated human GDF-15 protein before C1q binding was obtained. Experiment was performed in triplicated and mean of absorption (A450 nm) was plotted against the antibody concentration.

human complement protein C1q, sequence (P02745 23-245 limits assumed, chain 1 of 3): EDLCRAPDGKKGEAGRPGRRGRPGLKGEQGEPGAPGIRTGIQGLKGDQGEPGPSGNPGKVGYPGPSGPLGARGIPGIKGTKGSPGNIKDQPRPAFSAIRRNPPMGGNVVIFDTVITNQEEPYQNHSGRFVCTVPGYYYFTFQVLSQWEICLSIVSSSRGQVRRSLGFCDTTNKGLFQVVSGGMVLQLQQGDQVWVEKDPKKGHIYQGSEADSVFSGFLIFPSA
human complement protein C1q, sequence (P02746 28-253 limits assumed, chain 2 of 3): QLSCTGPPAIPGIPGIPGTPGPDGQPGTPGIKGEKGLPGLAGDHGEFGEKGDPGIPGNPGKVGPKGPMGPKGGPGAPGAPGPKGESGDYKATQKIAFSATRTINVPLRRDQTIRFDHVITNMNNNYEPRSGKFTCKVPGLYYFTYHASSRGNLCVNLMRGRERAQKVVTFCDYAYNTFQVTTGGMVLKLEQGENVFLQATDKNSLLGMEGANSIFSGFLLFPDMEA
human complement protein C1q, sequence (P02747 29-245 limits assumed, chain 3 of 3): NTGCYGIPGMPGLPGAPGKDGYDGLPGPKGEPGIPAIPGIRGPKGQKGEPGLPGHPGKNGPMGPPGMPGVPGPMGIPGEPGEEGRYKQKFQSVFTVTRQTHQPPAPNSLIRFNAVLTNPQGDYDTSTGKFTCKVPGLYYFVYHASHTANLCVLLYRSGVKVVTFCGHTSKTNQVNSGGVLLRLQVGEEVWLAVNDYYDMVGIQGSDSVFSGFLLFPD

| Binder | EC50, rescue of CD8+ T-cell adhesion (flow-adhesion assay) [1] [µg/mL] | EC50, reversal of GDF-15 mediated inhibition of T cell adhesion (in vitro flow-adhesion assay, 50 ng/ml GDF-15) [1] [µg/mL] | EC50 of CTL-002 in the flow-adhesion assay with T cells [1] [µg/mL] | Kd [2] [pM] | Kd [3] [pM] | Kd [4] [pM] | Kd [5] [pM] | Kd [6] [pM] | Kd [7] [pM] | binding result [8] |
| --- | --- | --- | --- | --- | --- | --- | --- | --- | --- | --- |
| B1 | ~0.7 | 0.69 to 0.725 | 0.707 | 33.8 | 19 | 38.3 | 108 | 449 | 9760 | no binding (tested: about 25 µg/ml (leftmost visible marker)) |
| B2 |  |  |  |  |  |  |  |  |  | no binding (tested: about 25 µg/ml (leftmost visible marker)) |
